# Test results published in article PMC5597967, “14-3-3 Regulates Actin Filament Formation in the Deep-Branching Eukaryote Giardia lamblia” (mSphere, 2017).
# B1: Gl-14-3-3–HA (endogenously 3×HA C-terminally tagged Gl-14-3-3) (natural protein, Giardia lamblia, UniProt E2RU97 1-248, looked up)
# chain: MAEAFTREDYVFMAQLNENAERYDEMVETMRKISGMEGELSDKERNLLSVAYKNVIGPRRAAWRIVSSIEAKEKGRQKPNAKRIEQIRVYRQKIEKELSDICNDILKLLQEQFVPRSTNADAKVFYYKMQGDYYRYLAEYSSGEDKEKIAGSALNAYNSAFEISQQLPPTHPIRLGLALNFSVFYYEILASPDRACELARKAFDAAITDLDKLTEESYKDSTLIMQLLRDNLNLWVTDSAGDDNAEEK
# notes: Giardia lamblia 14-3-3 (Gl-14-3-3), the single 14-3-3 homolog, GL50803_6430; source: Giardia trophozoites, endogenously tagged (integrated copy), in lysate; not shown: 3xHA, C-terminal, kept
# Biological target: the molecule itself
# Assay: native gel or EMSA; TS-actin and associated proteins purified on StrepTactin resin, eluted with 2 mM biotin, run at once on 4 to 16% native PAGE and blotted; with and without DSP cross-linking of cells before lysis; input also run
protein,measurement,value
B1,stoichiometry N,2
